The test addresses LTBP-1 C-terminal region (UniProt Q14766). Put plainly: SPR; Biacore; LTBP-1 C-terminal region immobilised by amine coupling on CM5 (methods); 10 mM HEPES pH 7.4, 0.1 M NaCl, 0.5 mM CaCl2, 0.005% P20. For orientation: In SPR one partner is held on a chip, and binding of the other changes the refractive index at the surface.

Chain of LTBP-1 C-terminal region (Q14766 24-1721): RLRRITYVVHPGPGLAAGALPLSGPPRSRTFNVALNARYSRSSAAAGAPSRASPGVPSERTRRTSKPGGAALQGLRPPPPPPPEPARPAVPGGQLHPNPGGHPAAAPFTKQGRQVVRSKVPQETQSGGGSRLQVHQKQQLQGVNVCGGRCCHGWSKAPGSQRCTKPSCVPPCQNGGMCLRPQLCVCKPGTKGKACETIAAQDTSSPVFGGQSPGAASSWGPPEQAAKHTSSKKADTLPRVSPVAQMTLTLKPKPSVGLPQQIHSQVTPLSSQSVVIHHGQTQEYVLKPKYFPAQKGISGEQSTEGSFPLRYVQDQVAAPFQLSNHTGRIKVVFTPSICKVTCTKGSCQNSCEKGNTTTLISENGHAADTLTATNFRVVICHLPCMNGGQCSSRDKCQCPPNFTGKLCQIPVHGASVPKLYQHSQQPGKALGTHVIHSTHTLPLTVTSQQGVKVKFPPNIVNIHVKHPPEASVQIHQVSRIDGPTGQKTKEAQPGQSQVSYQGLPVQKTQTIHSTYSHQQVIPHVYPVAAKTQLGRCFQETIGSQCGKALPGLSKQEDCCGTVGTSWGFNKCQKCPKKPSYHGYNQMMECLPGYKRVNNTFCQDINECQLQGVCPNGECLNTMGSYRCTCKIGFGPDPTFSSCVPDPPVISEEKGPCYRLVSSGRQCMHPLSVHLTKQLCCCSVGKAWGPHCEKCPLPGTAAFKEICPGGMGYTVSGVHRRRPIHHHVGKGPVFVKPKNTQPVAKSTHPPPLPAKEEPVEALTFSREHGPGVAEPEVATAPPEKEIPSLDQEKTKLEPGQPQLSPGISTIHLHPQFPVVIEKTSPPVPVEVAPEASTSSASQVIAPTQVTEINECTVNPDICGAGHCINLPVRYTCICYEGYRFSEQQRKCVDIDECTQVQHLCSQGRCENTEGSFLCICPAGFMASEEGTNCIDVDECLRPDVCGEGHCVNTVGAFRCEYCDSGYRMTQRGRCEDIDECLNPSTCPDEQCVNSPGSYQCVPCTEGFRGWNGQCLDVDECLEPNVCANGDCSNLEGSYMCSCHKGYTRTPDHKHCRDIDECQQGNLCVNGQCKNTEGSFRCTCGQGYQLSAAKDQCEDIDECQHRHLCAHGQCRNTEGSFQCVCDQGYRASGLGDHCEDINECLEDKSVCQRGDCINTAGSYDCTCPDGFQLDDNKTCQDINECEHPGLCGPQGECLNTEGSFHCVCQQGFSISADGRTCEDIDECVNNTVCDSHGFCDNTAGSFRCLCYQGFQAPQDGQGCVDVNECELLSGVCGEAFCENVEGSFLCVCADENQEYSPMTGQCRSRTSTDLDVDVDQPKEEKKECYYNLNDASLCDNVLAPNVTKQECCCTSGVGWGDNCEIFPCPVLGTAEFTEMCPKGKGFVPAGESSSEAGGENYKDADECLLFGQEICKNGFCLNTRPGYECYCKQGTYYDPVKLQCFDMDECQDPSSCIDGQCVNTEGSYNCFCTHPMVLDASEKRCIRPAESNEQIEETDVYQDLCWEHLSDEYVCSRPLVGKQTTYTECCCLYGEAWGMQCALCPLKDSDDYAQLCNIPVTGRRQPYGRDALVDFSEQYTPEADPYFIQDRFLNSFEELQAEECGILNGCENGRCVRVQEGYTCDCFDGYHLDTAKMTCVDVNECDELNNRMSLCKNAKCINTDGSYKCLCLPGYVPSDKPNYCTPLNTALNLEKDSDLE

B1: ADAMTS6 C-terminal region (domain or fragment)
chain: DGGWGPWSLWGECSRTCGGGVSSSLRHCDSPAPSGGGKYCLGERKRYRSCNTDPCPLGSRDFREKQCADFDNMPFRGKYYNWKPYTGGGVKPCALNCLAEGYNFYTERAPAVIDGTQCNADSLDICINGECKHVGCDNILGSDAREDRCRVCGGDGSTCDAIEGFFNDSLPRGGYMEVVQIPRGSVHIEVREVAMSKNYIALKSEGDDYYINGAWTIDWPRKFDVAGTAFHYKRPTDEPESLEALGPTSENLIVMVLLQEQNLGIRYKFNVPITRTGSGDNEVGFTWNHQPWSECSATCAGGVQRQEVVCKRLDDNSIVQNNYCDPDSKPPENQRACNTEPCPPEWFIGDWLECSKTCDGGMRTRAVLCIRKIGPSEEETLDYSGCLTHRPVEKEPCNNQSCPPQWVALDWSECTPKCGPGFKHRIVLCKSSDLSKTFPAAQCPEESKPPVRIRCSLGRCPPPRWVTGDWGQCSAQCGLGQQMRTVQCLSYTGQASSDCLETVRPPSMQQCESKCDSTPISNTEECKDVNKVAYCPLVLKFKFCSRAYFRQMCCKTCQGH
Turning to B1, the Kd (as a rule, the equilibrium constant for the complex coming apart) was 59 nM. That is a double-digit nanomolar value.

For the origin of these results see paper PMC5078793.
